Assay results reported in the RNAGym collection of RNA variant scans (doi:10.7554/elife.80360).

B1: Twister Ribozyme (parent)
chain: AACACUGCCAAUGCCGGUCCCAAGCCCGGAUAAAAGUGGAGGGGGCGG

Variants of: B1
Test: self-cleavage, relative activity (ratio to wild type); higher = more cleavage; co-transcriptional

Variant	self-cleavage
AACAGUGCCAAUGCCGUUCCCAAGCCCGGAUAAAAGUGGAGGGGGCGG	0.0612
AACAGUGCCAAUGCCGCUCCCAAGCCCGGAUAAAAGUGGAGGGGGCGG	0.0444
AACAGUGCCAAUGCCGGUCCCAAGCCCGGCUAAAAGUGGAGGGGGCGG	0.259
AACAUUGCCAAUGCCGGUCCCAAGCCCGGAUCAAAGUGGAGGGGGCGG	0.887
AACAUUGCCAAUGCCGGUCCCAAGCCCGGAUUAAAGUGGAGGGGGCGG	0.812
AACAGUGCCAAUGCCGGUCCUAAGCCCGGAUAAAAGUGGAGGGGGCGG	0.104
AACAGUGCCAAUGCCGGUCCAAAGCCCGGAUAAAAGUGGAGGGGGCGG	0.0944
AACAAUGCCAAUGCCGGUCCCAAGCCCGGAUAAAAGUGCAGGGGGCGG	0.149
AACAAUGCCAAUGCCGGUCCCAAGCCCGGAUAAAAGUGUAGGGGGCGG	0.0872
AACAAUGCCAAUGCCGGUCCCAAGCCCGGAUAAAAGUGAAGGGGGCGG	0.161
AACAUUGCCAAUGCCGGUCCCAAGCCCGGAUAAAAGUGGCGGGGGCGG	0.171
AACAUUGCCAAUGCCGGUCCCAAGCCCGGAUAAAAGUGGGGGGGGCGG	0.133
AACAAUGCCAAUGCCGCUCCCAAGCCCGGAUAAAAGUGGAGGGGGCGG	0.0425
AACAUUGCCAAUGCCGGUCCCGAGCCCGGAUAAAAGUGGAGGGGGCGG	0.113
AACAGUGCCAAUGCCGGUCCCAAGCCCGGAUAAAAGUGAAGGGGGCGG	0.197
AACAAUGCCAAUGCCGGUCCCAAGCCCGGAUAAAACUGGAGGGGGCGG	0.519
AACAAUGCCAAUGCCGGUCCCAAGCCCGGAUAAAAGUGGAGGGCGCGG	0.556
AACAAUGCCAAUGCCGGUCCCAAGCCCGGAUAAAAGUGGAGGGAGCGG	0.556
AACAAUGCCAAUGCCGGUCCCAAGCCCGGAUAAAAGUGGAGGGUGCGG	0.532
AACAGUGCCAAUGCCGGUCCCAAGCCCGGAUAAACGUGGAGGGGGCGG	0.742
AACAGUGCCAAUGCCGGUCCCAAGCCCGGAUAAAGGUGGAGGGGGCGG	0.696
AACAGUGCCAAUGCCGGUCCCAAGCCCGGAUAAAAGUUGAGGGGGCGG	0.165
AACAGUGCCAAUGCCGGUCCCAAGCCCGGAUAAAAGUCGAGGGGGCGG	0.219
AACAUUGCCAAUGCCGGUCCCAAGCCCGGAUAACAGUGGAGGGGGCGG	0.166
AACAGUGCCAAUGCCGGUCCCAAGCCCGGAUAAAAGUGGAGGGGGCGC	0.77
AACAGUGCCAAUGCCGGUCCCAAGCCCGGAUAAAAGUGGAGGGGGCGA	0.67
AACAGUGCCCAUGCCGGUCCCAAGCCCGGAUAAAAGUGGAGGGGGCGG	0.768

Variant	self-cleavage
AACAGUGCCAAUGCCGGUCCCAAGCCCGGAUAAAAGUGGAGGGGGCCG	0.269
AACAGUGCCAAUGCCGGUCCCAAGCCCGGAUAAAAGUGGAGGGGGCUG	0.521
AACAGUGCCAAUGCCGGUCCCAAGACCGGAUAAAAGUGGAGGGGGCGG	0.0988
AACAGUGCCAAUGCCGGUCCCAAGGCCGGAUAAAAGUGGAGGGGGCGG	0.0808
AACAUUGCCAGUGCCGGUCCCAAGCCCGGAUAAAAGUGGAGGGGGCGG	0.77
AACAGUGCCAAUGCCGGUCCCAAGCCCGGAUAAAAGUGGAGGGGGGGG	0.915
AACAGUGCCAAGGCCGGUCCCAAGCCCGGAUAAAAGUGGAGGGGGCGG	0.768
AACAGUGCCAAUGCCGGUCCCAAGCCCGGAUAAAAGGGGAGGGGGCGG	0.519
AACAGUGCCAAUGCCGGUCCCAAGCCCGGAUAAAAGCGGAGGGGGCGG	0.14
AACAAUGCCAAUGCCGGUCCCAAGCCCCGAUAAAAGUGGAGGGGGCGG	0.229
AACAUUGCCAAUGCCGGUCCCAAGCCCGGUUAAAAGUGGAGGGGGCGG	0.752
AACAUUGCCAAUGCCGGUCCCAAGCCCGGGUAAAAGUGGAGGGGGCGG	0.784
AACAAUGCCAAUGCCGGUCCCAACCCCGGAUAAAAGUGGAGGGGGCGG	0.0665
AACAGUGCCAAUUCCGGUCCCAAGCCCGGAUAAAAGUGGAGGGGGCGG	0.0419
AACAUUGUCAAUGCCGGUCCCAAGCCCGGAUAAAAGUGGAGGGGGCGG	0.398
AACAGUGCCAAUGCCGGUCCCAAGCCCGGAUAAAAUUGGAGGGGGCGG	0.724
AACAGUGCCAAUGCCAGUCCCAAGCCCGGAUAAAAGUGGAGGGGGCGG	0.341
AACAUUGCCAAUGGCGGUCCCAAGCCCGGAUAAAAGUGGAGGGGGCGG	0.0879
AACAUUGCCAAUGACGGUCCCAAGCCCGGAUAAAAGUGGAGGGGGCGG	0.673
AACAUUGCCAAUGCCGGUCCCAAGCCCGGAUAUAAGUGGAGGGGGCGG	0.714
AACAUUGCCAAUGCCGGUCCCAAGCCCGGAUACAAGUGGAGGGGGCGG	0.652
AACAUUGCCAAUGCCGGUCCCAAGCCCGGAUAGAAGUGGAGGGGGCGG	0.631
AACAGUGCCAAUGCCGGUCCCAAGCCCGGAUAAAAGUGGAGGGCGCGG	0.678
AACAGUGCCAAUGCCGGUCCCAAGCCCGGAUAAAAGUGGAGGGAGCGG	0.642
AACAGUGCCAAUGCCGGUCCCAAGCCCGGAUAAAAGUGGAGGGUGCGG	0.646
AACAGUUCCAAUGCCGGUCCCAAGCCCGGAUAAAAGUGGAGGGGGCGG	0.0648
AACAGUACCAAUGCCGGUCCCAAGCCCGGAUAAAAGUGGAGGGGGCGG	0.111
